Measurements as given in patent US11529390B2, “PCSK9 inhibitory polypolypeptides and methods of use” (INSTITUT DE CARDIOLOGIE DE MONTREAL, priority 2015, dated 2022).
Like-named read-outs stand apart in the source and are kept apart here. Ends that are not written are not given here. Peptide text beside a SMILES is read from it. * marks the point of attachment. Cbz = O=C(OCc1ccccc1)*

How the values were obtained:
[1] = system: PCSK9-induce degradation of LDLR; assay: PCSK9-induced LDLR-EGFP degradation in GRP94 knockdown HEK293 cells with proteasome inhibitor; type: cell-based, human; details: 5 μM, HEK293, overnight
Protocol: FIG. 4: Knockdown of GRP94 increases LDLR degradation by PCSK9. At day 0, HEK293 cells were transfected either with a non-targeting siRNA (−) or with siRNAs against GRP94 (+). At day 1, cells were transfected with an empty vector (−) or with plasmids encoding for LDLR-EGFP (SEQ. ID. NO. 69) alone or in combination with PCSK9-mCherry (SEQ. ID. NO. 70). At day 2, cells were washed and incubated overnight with DMSO (−) or 5 μM MG132 overnight in complete media. (a) Total LDLR-EGFP, PCSK9-mCherry, GRP94 and β-actin protein levels were analyzed by immune-blotting in cell lysates as indicated. (b) LDLR-GFP and PCSK9-mCherry were visualized in live cells by confocal microscopy as conditions described above. Data are representative of at least three independent experiments.
To decipher the role of GRP94 on PCSK9, we took advantage of HEK293 cells, as they are easily transfectable in addition to be PCSK9-negative. (Seidah et al., 2003) Cells were transfected with either non-targeting siRNA (−) or with siRNAs against human GRP94 (+) and 24 h later without (−) or plasmids encoding for fluorescent PCSK9-mCherry or LDLR-EGFP (FIG. 4). Twenty-hours post cDNA transfections, cells were incubated either with vehicle (DMSO) or 5 μM MG132, a proteasome inhibitor.

[2] = target: PCSK9 binding to the LDLR EGFA domain (Homo sapiens, UniProt Q8NBP7); assay: In vitro PCSK9-LDLR(EGFA) competitive assay, plate coated with LDLR-EGFA domain; details: 100 or 10 μM peptide, 100 ng wild-type human His-tagged PCSK9, pH6.1, 2 h
PCSK9 binding to the LDLR EGFA domain, sequence (Q8NBP7 153-692): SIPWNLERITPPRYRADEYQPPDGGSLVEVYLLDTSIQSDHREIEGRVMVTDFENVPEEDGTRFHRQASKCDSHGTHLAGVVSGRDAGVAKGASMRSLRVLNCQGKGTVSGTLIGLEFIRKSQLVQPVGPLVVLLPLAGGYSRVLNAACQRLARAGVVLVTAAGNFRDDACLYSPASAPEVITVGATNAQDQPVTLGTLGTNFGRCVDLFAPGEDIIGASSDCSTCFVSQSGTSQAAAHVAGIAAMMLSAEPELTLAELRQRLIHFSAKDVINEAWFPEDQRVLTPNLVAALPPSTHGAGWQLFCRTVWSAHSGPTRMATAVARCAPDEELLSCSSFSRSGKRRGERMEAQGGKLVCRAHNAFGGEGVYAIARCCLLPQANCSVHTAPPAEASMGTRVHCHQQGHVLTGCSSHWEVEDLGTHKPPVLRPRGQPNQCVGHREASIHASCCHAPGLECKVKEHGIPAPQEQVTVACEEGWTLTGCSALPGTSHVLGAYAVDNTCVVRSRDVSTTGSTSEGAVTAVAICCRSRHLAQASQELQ
PCSK9 binding to the LDLR EGFA domain, sequence (Q8NBP7 31-152 partner limits assumed): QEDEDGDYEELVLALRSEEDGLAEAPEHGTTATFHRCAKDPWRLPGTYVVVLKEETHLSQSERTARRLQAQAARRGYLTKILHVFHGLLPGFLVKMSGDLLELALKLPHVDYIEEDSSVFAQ
Protocol: SEQ ID. NO. 4 peptide was dissolved to 10 mM (working dilution) in DMEM media (Wisent Cat. #319-005-CL). In a total of 100 μl reaction buffer (HEPES buffer containing NaCl, CaCl2), BSA and proclin 300, pH6.1), SEQ ID. NO. 4 were added to a final concentration of 100 or 10 μM together with 100 ng wild-type human recombinant His-tagged PCSK9. Reaction buffer was added to 96 wells coated with recombinant LDLR-EGFA domain (involved in PCSK9-LDLR interaction) and incubated at room temperature for 2 h on an orbital microplate shaker (300 rpm). Following incubation, wells were washed 4 times with wash buffer and biotinylated anti-His-tag monoclonal antibody was added into each well and incubated for 1 h at room temperature. Following incubation wells were washed 4 times, and HRP-conjugated streptatvidin was added to each well and incubated for 20 min. Following 4 washes, 100 μl substrate reagent (TMB, tetra-methylbenzidine) were added for 15 min to each wells and enzymatic reaction stopped by adding 100 μl stop solution (1N […]). For each well, absorbance at 450 nm and 540 nm was measure and relative PCSK9 binding to LDLR-EGFA was determined according to a standard curve (100 ng to 1.56 ng). Inhibitory activities of SEQ ID. […]

[3] = system: LDLR degradation induced by overexpression of PCSK9; assay: LDLR degradation after co-expression with PCSK9-V5 (intracellular pathway), immunoblot; type: cell-based, human
Protocol: FIG. 7: SEQ ID NO. 6 prevents PCSK9-induced LDLR degradation. (a) Left; Coomassie staining of purified recombinant SEQ ID NO. 6 and PCSK9 separated by SDS-PAGE is shown. Right; HepG2 cells were incubated in DMEM without or with 0, 25, 100 or 250 nM SEQ ID NO. 6 alone or in presence of recombinant PCSK9. (b) HepG2 cells were transfected without (−) or with PCSK9-V5 in absence (−) or presence SEQ ID NO. 66 or SEQ ID NO. 46. Total LDLR, PCSK9, SEQ ID NO. 66, SEQ ID NO. 46 and β-actin protein levels were analyzed by immunoblotting in cell lysates and conditioned media as indicated. Data are representative of at least three independent experiments.
We next tested whether SEQ ID. NO. 6 could alter the capacity of PCSK9 to induce LDLR degradation. HepG2 cells were incubated overnight with an increasing amount of recombinant SEQ ID. NO. 6 in absence or presence of exogenous PCSK9 (FIG. 7a). […] NO. […] Although that SEQ ID. NO. […] NO. […] (Poirier et al., 2009) As PCSK9 was also shown to induce LDLR degradation via an intracellular pathway, (Poirier et al., 2009) we evaluated to ability of SEQ ID. NO. 66 or SEQ ID. NO. 46 to neutralize PCSK9 in HepG2 cells following co-expression (FIG. 7b). Similar to the extracellular pathway (FIGS. 5b and 7a), both SEQ ID. NO. 66 and SEQ ID. NO. […] NO. 66 and specifically SEQ ID. NO. […]

PCSK9-V5 = target: T1, PCSK9-V5 (Homo sapiens, UniProt Q8NBP7); assay: Co-immunoprecipitation of GRP94 constructs with PCSK9-V5 in transfected HEK293 cells; type: binding
T1 construct: Full-length human V5-tagged PCSK9 and LDLR were subcloned into pIRES2-EGFP; expressed in transfected cells; host or cells: HEK293
T1 sequence (Q8NBP7 153-692): as the sequence (Q8NBP7 153-692) above
Protocol: FIG. 2: Mapping of the PCSK9-GRP94 interacting domain. (a-b) HEK293 cells were transfected without (−) or with (+) PCSK9-V5 or SEQ ID NO. 66, 64 or 65. A PCSK9 V5 epitope-tag fusion protein (PCSK9-V5) was immune-precipitated from cell lysates using mAb-V5 antibody (IP: V5) and immune-blotted as indicated. Total GRP94 (SEQ. ID. NO. 3) and PCSK9 (SEQ. ID. NO. 1) protein levels were analyzed by immune-blotting in cell lysates (input) and conditioned media. (c) Left panel; HEK293 cells were transfected without (−) or with (+) PCSK9-V5, SEQ. ID. NO. 66 or 46. PCSK9-V5 was immune-precipitated for cell lysates (IP: V5) and immune-blotted (IB) as indicated. Total GRP94 and PCSK9 protein levels were also analyzed by immune-blotting and herein used as a control (input). Right panel; GRP94 homodimer (gray and yellow) crystal structure was determined from PDB file #2O1V using MacPymol software. […] 6 in which critical residues for PCSK9 binding determined in (b) are indicated in blue for SEQ. ID. NO. 64 and red for SEQ. ID. NO. 65. Data are representative of at least three independent experiments.
For identification of novel PCSK9 interactors, HepG2 or Huh-7 cells (55 cm2) were washed three times in phosphate-buffered saline (PBS) and incubated with 1 mM dithiobis[succinimidylpropionate] (DSP; Cat. #22585, Thermo Scientific), a thiol-cleavable cross-linking reagent, for 30 min at room temperature and subsequently switch for 15 min into a stop solution (15 mM Tris, pH 7.5). Cells were then lysed in complete radio-immune precipitation assay (RIPA) buffer (50 mM Tris/HCl, pH 8.0, 1% (v/v) Nonidet P40, 0.5% sodium deoxycholate, 150 mM NaCl and 0.1% (v/v) sodium dodecyl sulfate (SDS)) supplemented with a complete protease inhibitor mixture (Cat. #11 697 498 001, Roche Applied Science), passed 25 times through a 22-gauge needle and centrifuged at 11,000 g for 15 min at 4° C. Supernatants were incubated and rotated overnight with pre-immune serum, rabbit anti-hPCSK9 (amino acids 31-454) (1:250; Dr. Nabil Seidah, Clinical Research Institute of Montreal) or mouse anti-V5-tag (1:500; Cat. #R96025, Life Technologies) together with 50 μl protein A/G PLUS-agarose (Cat. #sc-2003, Santa Cruz). Following overnight incubation, beads were washed six times in RIPA buffer and resuspended in 75 μl Laemmli sample buffer. Co-immunoprecipitated (Co-IP) proteins were separated by 8% SDS-polyacrylamide gel electrophoresis and visualized using the Pierce silver stain kit (Cat. #24600, Thermo Scientific) according the manufacturer's instructions. All other Co-IP experiments were performed as described without the cross-linking step and in SDS-deprived RIPA buffer. HA-tagged proteins and GRP94 were immunoprecipitated with mouse anti-HA-tag (1:500; Cat. #H3663, Sigma-Aldrich) or rat anti-Grp94 (9G10, 1:1000; Cat. #ADI-SPA-850, Enzo Life Sciences).
We next decided to map GRP94 domain(s) important for PCSK9 protein-protein interaction. The overall domain structure of GRP94 includes a signal polypeptide (amino acids; aa1-21) followed by a N-terminal enzymatic ATP-binding domain (aa22-651), client-binding domain (CBD; aa652-678), C-terminal dimerization domain (aa679-799) and a KDEL polypeptide sequence (aa800-803) allowing retention of GRP94 in the endoplasmic reticulum. (Dollins et al., 2007; Maki et al., 1990; Wu et al., 2012) Thus, we first generated cDNA constructs encoding secretable HA-tagged forms of human GRP94 lacking its C-terminal KDEL polypeptide (SEQ ID. NO. 66; FIG. 2). HEK293 cells were transfected without or with SEQ ID. NO. 66 in absence or presence of PCSK9-V5 (FIG. 2a). […] NO. 66 is well expressed (Input; IB: HA) and secreted into media and that SEQ ID. NO. […] It was reported that a 27 aa C-terminal hydrophobic loop structure within GRP94 client-binding domain (CBD, amino acids aa652-678; ^652[…], SEQ ID. NO. 4) was important for folding and interaction with Toll-like receptors and integrins. (Wu et al., 2012) Deletion or alanine-scan mutations in SEQ ID. […]

CC(C)C[C@@H](C=O)NC(=O)[C@H](CC(C)C)NC(=O)[C@H](CC(C)C)NC(=O)OCc1ccccc1 [MG132] (Cbz-Leu-Leu-Leu-aldehyde)
Block of PCSK9-induced LDLR degradation after GRP94 knockdown [1]: not blocked

YGWSGNMERIMKAQAYQTGKDISTNYY (YGWSGNMERIMKAQAYQTGKDISTNYY-NH2) [SEQ ID. NO. 4]
Inhibition of binding of PCSK9 to the LDLR EGFA domain [2]: inhibit binding of PCSK9 to the LDLR EGFA domain | Inhibition of binding of PCSK9 to the LDLR EGFA domain ([2]; listed as SEQ. ID. NO. 4): inhibits binding of PCSK9 to the LDLR EGFA domain

B1: SEQ ID. NO. 66: secretable HA-tagged form of human GRP94 lacking its C-terminal KDEL sequence (protein)
chain: MRALWVLGLCCVLLTFGSVRADDEVDVDGTVEEDLGKSREGSRTDDEVVQREEEAIQLDGLNASQIRELREKSEKFAFQAEVNRMMKLIINSLYKNKEIFLRELISNASDALDKIRLISLTDENALSGNEELTVKIKCDKEKNLLHVTDTGVGMTREELVKNLGTIAKSGTSEFLNKMTEAQEDGQSTSELIGQFGVGFYSAFLVADKVIVTSKHNNDTQHIWESDSNEFSVIADPRGNTLGRGTTITLVLKEEASDYLELDTIKNLVKKYSQFINFPIYVWSSKTETVEEPMEEEEAAKEEKEESDDEAAVEEEEEEKKPKTKKVEKTVWDWELMNDIKPIWQRPSKEVEEDEYKAFYKSFSKESDDPMAYIHFTAEGEVTFKSILFVPTSAPRGLFDEYGSKKSDYIKLYVRRVFITDDFHDMMPKYLNFVKGVVDSDDLPLNVSRETLQQHKLLKVIRKKLVRKTLDMIKKIADDKYNDTFWKEFGTNIKLGVIEDHSNRTRLAKLLRFQSSHHPTDITSLDQYVERMKEKQDKIYFMAGSSRKEAESSPFVERLLKKGYEVIYLTEPVDEYCIQALPEFDGKRFQNVAKEGVKFDESEKTKESREAVEKEFEPLLNWMKDKALKDKIEKAVVSQRLTESPCALVASQYGWSGNMERIMKAQAYQTGKDISTNYYASQKKTFEINPRHPLIRDMLRRIKEDEDDKTVLDLAVVLFETATLRSGYLLPDTKAYGDRIERMLRLSLNIDPDAKVEEEPEEEPEETAEDTTEDTEQDEDEEMDVGTDEEEETAKESTAEYPYDVPDYA
Block of LDLR degradation induced by overexpression of PCSK9 [3]: significantly block | Interaction (binding) with PCSK9 by co-immunoprecipitation (PCSK9-V5): interacts in complex with PCSK9 | Interaction (binding) with PCSK9 by co-immunoprecipitation (PCSK9-V5; listed as SEQ. ID NO. 66): specifically binds to PCSK9
